Experimental data published in patent US20100105567A1, “NOVEL CAPTURE AGENTS FOR BINDING A LIGAND” (priority 2005, published 2010).
No end group written: not given here. TAMRA = rhodamine dye label at the N-terminus (mixture of 5- and 6-isomers)

Legend:
Type in all cases: physicochemical
[1] = pH resistance of peptide deposited onto polypropylene; conditions: maximal retention at low and high pH, minimal around pH 6.5
Procedure: The pH resistance of peptide 2DOS-2 (see above) deposited onto a polypropylene hydrophobic surface was investigated:
Twelve 50 μl aliquots of peptide 2DOS-2 in 10 mM tris-HCl (pH 8.0) in 50% (v/v) aqueous acetonitrile were dried down in the wells of a Costar microtitre plate.
(§1) The peptide samples were allowed to evaporate to dryness in the dark.
The dried peptide samples in the first eleven wells were incubated with 200 μl of 100 mM phosphate buffer for 30 minutes at room temperature according to the scheme shown in Table 7:
All supernatants were pipetted off and the residual surface-bound peptides in all twelve wells were finally resuspended in 50 μl of 10,mM tris-HCl (pH 8.0) in 50% (v/v) aqueous acetonitrile and the microtitre plate was imaged at 200 μm resolution on a Typhoon Trio Plus variable mode imager (Amersham Biosciences) with the green (532 nm) laser and the 580 BP 30 filter at the PMT voltages indicated below and at normal sensitivity. The scan height was set at +3 mm and the sample was pressed during scanning.
(§2) The fluorescence images were analysed using ImageQuant TL v2003.03 (Amersham Biosciences).
Quantification data for peptide 2DOS-2 retention (using data from the 300V scan) are given in Table 8 and graphically in FIG. 16: […]

[2] = Time-dependent persistence of peptide on polypropylene in aqueous buffer; conditions: 1 M NaCl/10 mM tris-HCl (pH 8.0)
Procedure: The time-dependent persistence of peptide 2DOS-2 (see above) deposited onto a polypropylene hydrophobic surface in the presence of aqueous buffer was investigated as shown below:
Twelve 100 μl aliquots of 5 μM peptide 2DOS-2 in 5 mM tris-HCl (pH 8.0) in 75% (v/v) aqueous acetonitrile were dispensed to the wells of the top row of a Costar microtitre plate.
as §1
The dried peptide samples in wells 1-10 were incubated with 250 μl of 1 M NaCl in 10 mM tris-HCl (pH 8.0) for the time indicated below at room temperature. All supernatants were pipetted up and down 8 times after incubation and the supernatants were then removed and placed in the wells of the bottom row of the microtitre plate. […]
as §2
Fluorescence data for the time-dependent persistence of peptide 2DOS-2 deposited onto a polypropylene hydrophobic surface in the presence of aqueous buffer are shown in FIG. 17: […]

[3] = Retention of arrayed peptides on a polypropylene sheet after successive washes; conditions: for Corrected signal: slide background subtracted
Procedure: Further experiments were undertaken to investigate the retention of peptides P1-1 to P1-5 and P2-1 to P2-2, shown in Table 3, on a polypropylene surface.
The polypropylene sheet was wiped with 50% (v/v) aqueous acetonitrile prior to use.
8×replicate 20 nl volumes of 1 μM peptides P1-1 to P1-5 and P2-1 to P2-2 and TAMRA in dimethyl sulphoxide (DMSO) were dispensed at 1 mm spacing to a 3″×1″×1 mm polypropylene sheet using the Piezorray system (PerkinElmer LAS). 500 drops were pre-dispensed using the ‘side shoot’ option and the tuning was set to 72V for 30 μs.
The slide was imaged at 10 μm resolution on a Typhoon Trio Plus variable mode imager (Amersham Biosciences) with the green (532 nm) laser and the 580 BP 30 filter at a PMT voltage of 600 V and at normal sensitivity. The scan height was set at the platen and the samples were pressed during scanning. The fluorescence image was analysed using ImageQuant TL v2003.03 (Amersham Biosciences).
The lower half of the slide (containing the test array) was then washed in 100 ml of 1 M NaCl containing 10 mM tris-HCl (pH 8.0) for one minute and were re-scanned as described above.
The same half of the slide was then washed for a second time in 100 ml of 1 M NaCl containing 10 mM tris-HCl (pH 8.0) for 30 minutes and re-scanned as described above.
The same half of the slide was then washed for a third time in 100 ml of water for 30 minutes and re-scanned as described above.

[4] = Control array (not washed), scan after first wash
[5] = Control array (not washed), scan after second wash
[6] = Control array (not washed), scan after third wash
[7] = Test array, after first wash (1 M NaCl, 10 mM tris-HCl pH 8.0, one minute)
[8] = Test array, after second wash (1 M NaCl, 10 mM tris-HCl pH 8.0, 30 minutes)
[9] = Test array, after third wash (water, 30 minutes)

Substance	retention on a polypropylene surface versus pH (in words) [1]	retention on a hydrophobic polypropylene surface over time (in words) [2]	Average fluorescence [3, 4]	Corrected signal [3, 4]	Average fluorescence [3, 5]	Corrected signal [3, 5]	Average fluorescence [3, 6]	Corrected signal [3, 6]	Average fluorescence [3, 7]	Corrected signal ([3]; Test array, after first wash)	Average fluorescence [3, 8]	Corrected signal ([3]; Test array, after second wash)	Average fluorescence [3, 9]	Corrected signal ([3]; Test array, after third wash)	retention on polypropylene sheet (in words) ([3]; compared among P1-1 to P1-5, chain length of 19 amino acids)
N-TAMRA-Phe-Asp-Phe-Ala-Phe-Ser-Phe-Lys-Phe-C ({TAMRA}-FDFAFSFKF; not fully specified (C-terminus)) [Peptide 2DOS-2]	stable over a broad range of pH values	stable for extended periods of time													
TAMRA-F-G-F-G-F-G-F-G-F-G-F-S-F-A-F-D-F-G-F ({TAMRA}-FGFGFGFGFGFSFAFDFGF) [Peptide P1-5]			199,347,483	52,655,810	190,847,825	53,567,975	183,492,293	49,585,053	201,991,732	47,493,774	167,865,473	35,418,169	147,812,043	23,514,817	highest retention
TAMRA-F-G-F-G-F-G-F-G-F-S-F-A-F-D-F-G-F ({TAMRA}-FGFGFGFGFSFAFDFGF) [Peptide P1-4]			187,287,630	40,595,958	179,942,418	42,662,569	176,102,487	42,195,247	189,823,310	35,325,352	159,100,527	26,653,223	135,681,173	11,383,947	
TAMRA-F-G-F-G-F-G-F-S-F-A-F-D-F-G-F ({TAMRA}-FGFGFGFSFAFDFGF) [Peptide P1-3]			192,743,469	46,051,796	187,310,655	50,030,806	184,219,147	50,311,907	171,197,973	16,700,014	148,725,456	16,278,152	125,717,642	1,420,417	
TAMRA-F-G-F-G-F-S-F-A-F-D-F-G-F ({TAMRA}-FGFGFSFAFDFGF) [Peptide P1-2]			200,280,129	53,588,457	196,080,891	58,801,042	185,727,868	51,820,628	170,078,218	15,580,260	135,695,639	3,248,336	126,193,156	1,895,931	
TAMRA-F-G-F-S-F-A-F-D-F-G-F ({TAMRA}-FGFSFAFDFGF) [Peptide P1-1]			244,263,013	97,571,341	225,863,933	88,584,083	218,342,010	84,434,769	157,624,537	3,126,578	127,216,792	−5,230,512	124,941,941	644,716	
